{"source": "patent US20040072168A1", "about": "“Novel deoxynucleoside kinase enzyme variants” (priority 2000, published 2004)", "molecules": {"B1": {"name": "Dm-dNK: wild-type Drosophila melanogaster deoxyribonucleoside kinase (SEQ ID NO: 1) (protein)", "chain": "MAEAASCARKGTKYAEGTQPFTVLIEGNIGSGKTTYLNHFEKYKNDICLLTEPVEKWRNVNGVNLLELMYKDPKKWAMPFQSYVTLTMLQSHTAPTNKKLKIMERSIFSARYCFVENMRRNGSLEQGMYNTLEEWYKFIEESIHVQADLIIYLRTSPEVAYERIRQRARSEESCVPLKYLQELHELHEDWLIHQRRPQSCKVLVLDADLNLENIGTEYQRSESSIFDAISSNQQPSPVLVSPSKRQRVAR", "modifications": "Drosophila melanogaster; CDS (1)..(750)"}}, "key": {"[1]": {"system": "TK deficient E. coli strain KY895", "experiment": "Determination of LD100 of nucleoside analogues on M9 plates, E. coli KY895 transformed with kinase variant plasmids", "type": "cell-based", "conditions": "KY895 expressing the variant", "text": "The mutagenized PCR fragments were purified by the PCR Kit from Boehringer Mannhein, cut with BamHI and EcoRI and sub-cloned into the multiple cloning site of the pGEX-2T plasmid vector. The TK deficient E. coli strain KY895 [F tdk-1 ilv] [Igarashi K, Hiraga S & Yura T: A deoxythymidine kinase deficient mutant of Eschericha coli. II. Mapping and transduction studies with phage Φ80; Genetics 1967 57 643-6541, was electro-transformed with the ligation mix, using standard techniques, and plated on LB-ampicillin (100 μg/ml) plates.\nOvernight cultures of these colonies were diluted 200-fold in 10% glycerol and 2 μl drops of the dilution were spotted on M9 minimal medium plates [Ausubel F, Brent R, Kingston R E, Moore D D, Seidman J G, Smith J A & Struhl K (Eds.): Short protocols in molecular biology; Wiley, USA, 3rd Edition, 1995, p.1-2] supplemented with 0.2% glucose, 40 μg/ml isoleucine, 40 μg/ml valine, 100 μg/ml ampicillin and with or without nucleoside analogues.\nAll clones with increased sensitivity towards at least one nucleoside analogue were tested on M9 plates with logarithmic dilution of the nucleoside analogues to determine the lethal dose (LD100) of the nucleoside analogues, at which no growths of bacteria could be seen.\nPlates were prepared by mixing the medium with the analogues at the lowest temperature possible, before pouring the plates."}, "[2]": {"conditions": "cited from earlier work"}}, "data": [{"molecule": "B1", "values": [{"measurement": "LD100 araC", "setting": "[1]; lethal dose (no growth of bacteria) of araC, range 3.16-1000 μM", "value": 1000, "unit": "µM"}, {"measurement": "LD100 2CdA", "setting": "[1]; lethal dose of 2CdA, range 0.0316-100 μM, second line of last column", "value": 100, "unit": "µM"}, {"measurement": "LD100 AZT", "setting": "[1]; lethal dose of AZT, range 0.01-100 μM", "value": 100, "unit": "µM"}, {"measurement": "LD100 araA", "setting": "[1]; lethal dose of araA, range 10-1000 μM, third line of last column", "value": ">1000", "unit": "µM"}, {"measurement": "LD100 ddA", "setting": "[1]; lethal dose of ddA, range 0.316-31.6 μM", "value": 31.6, "unit": "µM"}, {"measurement": "LD100 ddC", "setting": "[1]; lethal dose of ddC, range 10-3500 μM, first line of last column", "value": ">3500", "unit": "µM"}, {"measurement": "catalytic rate of deoxyribonucleoside phosphorylation, higher than reported for any of the mammalian deoxyribonucleoside kinases", "setting": "[2]; depending on the substrate", "value": "4-20,000 fold"}, {"measurement": "turnover of thymidine, higher than catalysed by HSV1 thymidine kinase", "setting": "[2]; thymidine, versus HSV1-TK", "value": 70, "unit": "fold"}]}]}
